In patent US6890900B2, “Methods for treating or preventing diseases of the oral cavity” (Campina B.V., priority 2001, dated 2005):

How the values were obtained:
Assay in all cases: LF/GMP assay, viable plate count (pour plate) of broth culture
Type in all cases: cell-based
[1] = system: Pseudomonas aeruginosa ATCC #27853; parameters: key to MIBC: NCF: No Effective Concentration Found; settings: for Colony Counts: viable plate count
Procedure: Bacterial strains used in this study were Pseudomonas aeruginosa ATCC #27853, Streptococcus mutans ATCC #33535, Streptococcus pyogenes ATCC #19615, and Actinobacillus haemophilus ATCC #43717 and an oral swab from a healthy adult. Bacteria were grown on blood/BHT media (Brain Heart Infusion Agar with protease peptone, sodium chloride, glucose, di-sodium phosphate, and agar, Oxoid, Hampshire England, Sheep's Blood) in the presence of 5% CO2 at 35° C. Bacteria were harvested by swabbing inoculated growth plates after 24 hours and diluting the colonies in 9 ml of deionized water (DI water) until a suspension of 0.5 McFarland Turbidity Standard was reached using the nephelometer (McFarland Turbidity Meter). The 0.5 McFarland value is approximately equivalent to 1.0×10^8 organisms. One ml of the appropriate bacterial dilution was taken using a sterile pipette and introduced into 8 ml of sterilized BHI broth. (Preparation of BHI broth: 37 g+1,000 ml DI water, Difco Laboratories. By pipette, 9 ml of broth was placed into medium test tubes as means of a control and 8 ml test tubes were prepared for the concentration tests).
This solution was filtered through a 0.45 μm filter. […] Example for calculating 2,500 ppm dilution (1,000 ppm=0.1%): [formula] [formula] [formula] […]
One mL of each bacterial strain, plus one mL of sialic acid solution (1,000 ppm) were inoculated into test tubes filled with 8 mL of BHI broth. Each test tube was vortexed, incubated for 24 hours at 35° C. with 5% CO2, and then pour plated in BHI agar to obtain a plate count.
This technique was used to determine the density of living (viable) cells in inoculated broth cultures. It involves plating a bacterial sample and counting the resulting colonies after incubation. A serial dilution of the original broth was taken prior to plating. The serial dilution is necessary to reduce the density of organisms in order to create countable plates. Only plates containing between 25 and 250 colonies are considered countable. Cell densities are traditionally recorded as CFU (colony forming unit)/ml. By convention, when 1.0 ml is inoculated onto a plate, the dilution factor (DF) is recorded as tenfold greater. Formula: [formula]
The assays required the use of a pour plate technique. The pour plate technique adds a step to the conventional serial dilution. The 1 ml of dilution is added to a warm emulsion of dilute nutrient (BHI) agar to produce an agar overlay in the petri plates. After incubation, the bacterial growth covers the entire plate but individual cellular movement has been restricted by the soft agar overlay. Each colony formed is assumed to have originated from a single CFU. The plates were gently mixed, inverted, and incubated for 18-24 hour at 35° C. […]

[2] = system: Actinobacillus haemophilus ATCC #43717; settings: 35° C.; for Colony Counts: viable plate count
Procedure: (§1) Bacterial strains used in this study were Pseudomonas aeruginosa ATCC #27853, Streptococcus mutans ATCC #33535, Streptococcus pyogenes ATCC #19615, and Actinobacillus haemophilus ATCC #43717 and an oral swab from a healthy adult. Bacteria were grown on blood/BHT media (Brain Heart Infusion Agar with protease peptone, sodium chloride, glucose, di-sodium phosphate, and agar, Oxoid, Hampshire England, Sheep's Blood) in the presence of 5% CO2 at 35° C. […] One ml of the appropriate bacterial dilution was taken using a sterile pipette and introduced into 8 ml of sterilized BHI broth. […] By pipette, 9 ml of broth was placed into medium test tubes as means of a control and 8 ml test tubes were prepared for the concentration tests). […] This solution was filtered through a 0.45 μm filter. […] To study the kinetics of LF/GMP binding, each strain of bacteria was taken separately with a sterile pipette and placed into an 8 ml BHI broth test tube, vortexed, and incubated in the presence of 1 ml of LF or GMP for 18-24 hours at 35° C. with 5% CO2. In the combination procedure, 0.5 ml of both LF and […] were taken as 1 ml inoculations. One mL of each bacterial strain, plus one mL of sialic acid solution (1,000 ppm) were inoculated into test tubes filled with 8 mL of BHI broth. Each test tube was vortexed, incubated for 24 hours at 35° C. with 5% CO2, and then pour plated in BHI agar to obtain a plate count. This technique was used to determine the density of living (viable) cells in inoculated broth cultures. It involves plating a bacterial sample and counting the resulting colonies after incubation. A serial dilution of the original broth was taken prior to plating. The serial dilution is necessary to reduce the density of organisms in order to create countable plates. Only plates containing between 25 and 250 colonies are considered countable. Cell densities are traditionally recorded as CFU (colony forming unit)/ml. […] Formula: [formula] The assays required the use of a pour plate technique. The pour plate technique adds a step to the conventional serial dilution. The 1 ml of dilution is added to a warm emulsion of dilute nutrient (BHI) agar to produce an agar overlay in the petri plates. After incubation, the bacterial growth covers the entire plate but individual cellular movement has been restricted by the soft agar overlay. Each colony formed is assumed to have originated from a single CFU. The plates were gently mixed, inverted, and incubated for 18-24 hour at 35° C. Using a control (one broth tube inoculated with a bacterial strain, but no LF), the effectiveness of LF was examined. Each test tube containing a specified amount of LF (50, 100, 250, 500, 1,000 ppm and 3000 ppm) was diluted and plates were poured. […] A. haemophilus, S. mutans, S. pyrogenes and an oral culture were tested at 35° C. Pseudomonas aeruginosa was tested at both room temperature and 35° C. with 5% CO2. This was done because P. aeruginosa is not strictly an oral pathogen. It is commonly found in the environment in various conditions. It can be found in the environment and oral intake can cause inflammation in the oral cavity. Most normal oral bacteria are only found in the mouth and are not taken in from outside factors. Therefore, P. aeruginosa is a threat in both temperature settings. […] (see Table 2).

[3] = system: Streptococcus mutans ATCC #33535; settings: 35° C.; for Colony Counts: viable plate count
Procedure: as §1

[4] = Lactoferrin/GMP 250/0 ppm (LF alone)
[5] = Lactoferrin/GMP 3,000/0 ppm (LF alone)
[6] = Lactoferrin/GMP 3,000/0 ppm (LF alone), listed as Lactoferrin

B1: LF: Bovine lactoferrin, iron-binding glycoprotein purified from milk, provided by DMV International (protein, UniProt P24627 20-708, looked up)
Lactotransferrin: APRKNVRWCTISQPEWFKCRRWQWRMKKLGAPSITCVRRAFALECIRAIAEKKADAVTLDGGMVFEAGRDPYKLRPVAAEIYGTKESPQTHYYAVAVVKKGSNFQLDQLQGRKSCHTGLGRSAGWIIPMGILRPYLSWTESLEPLQGAVAKFFSASCVPCIDRQAYPNLCQLCKGEGENQCACSSREPYFGYSGAFKCLQDGAGDVAFVKETTVFENLPEKADRDQYELLCLNNSRAPVDAFKECHLAQVPSHAVVARSVDGKEDLIWKLLSKAQEKFGKNKSRSFQLFGSPPGQRDLLFKDSALGFLRIPSKVDSALYLGSRYLTTLKNLRETAEEVKARYTRVVWCAVGPEEQKKCQQWSQQSGQNVTCATASTTDDCIVLVLKGEADALNLDGGYIYTAGKCGLVPVLAENRKSSKHSSLDCVLRPTEGYLAVAVVKKANEGLTWNSLKDKKSCHTAVDRTAGWNIPMGLIVNQTGSCAFDEFFSQSCAPGADPKSRLCALCAGDDQGLDKCVPNSKEKYYGYTGAFRCLAEDVGDVAFVKNDTVWENTNGESTADWAKNLNREDFRLLCLDGTRKPVTEAQSCHLAVAPNHAVVSRSDRAAHVKQVLLHQQALFGKNGKNCPDKFCLFKSETKNLLFNDNTECLAKLGGRPTYEEYLGTEYVTAIANLKKCSTSPLLEACAFLTR
Colony Counts ([1]; 50 ppm, 35° C., 24 h): 4.6 × 10^8 | Colony Counts ([1]; 100 ppm, 35° C., 24 h): 3.6 × 10^8 | Colony Counts ([1]; 250 ppm, 35° C., 24 h): 2.6 × 10^8 | Colony Counts ([1]; 1,000 ppm, 35° C., 24 h): 3.2 × 10^8 | Colony Counts ([1]; 3,000 ppm, 35° C., 24 h): 1.2 × 10^8 | Total Log Reduction ([1]; Lactoferrin/GMP 250/0 ppm (LF alone), 23° C. (room temperature)): 1 log | Total Log Reduction ([1]; Lactoferrin/GMP 250/0 ppm (LF alone), 35° C.): 0 log | Total Log Reduction ([1]; Lactoferrin/GMP 3,000/0 ppm (LF alone), 23° C. (room temperature)): 0 log | Total Log Reduction ([1]; Lactoferrin/GMP 3,000/0 ppm (LF alone), 35° C.): 0 log | # Log Reductions ([1]; at the MIBC, vs control, 35° C.): 0 log | MIBC ([1]; single agent, 35° C., 24 h, 5% CO2): NCF | Colony Counts ([2]; 50 ppm, 24 h): 2.6 × 10^8 | Colony Counts ([2]; 100 ppm, 24 h): 2.5 × 10^8 | Colony Counts ([2]; 250 ppm, 24 h): 2.5 × 10^8 | Colony Counts ([2]; 500 ppm, 24 h): 2.3 × 10^8 | Colony Counts ([2]; 1,000 ppm, 24 h): 2.4 × 10^8 | Colony Counts ([2]; 3,000 ppm, 24 h): 5.3 × 10^7 | Total Log Reduction [2, 4]: 0 log | Total Log Reduction [2, 5]: one log | Total Log Reduction [2, 6]: 1 log | # Log Reductions ([2]; at the MIBC, vs control): 1 log | MIBC ([2]; single agent, 24 h, 5% CO2): 3,000 ppm | Colony Counts ([3]; 50 ppm, 24 h): 1.9 × 10^8 | Colony Counts ([3]; 100 ppm, 24 h): 1.9 × 10^8 | Colony Counts ([3]; 250 ppm, 24 h): 1.7 × 10^8 | Colony Counts ([3]; 500 ppm, 24 h): 1.4 × 10^8 | Colony Counts ([3]; 1,000 ppm, 24 h): 1.2 × 10^8 | Colony Counts ([3]; 3,000 ppm, 24 h): 5.5 × 10^7 | Total Log Reduction [3, 4]: 0 log | Total Log Reduction [3, 5]: one log | Total Log Reduction [3, 6]: 1 log | # Log Reductions ([3]; at the MIBC, vs control): 1 log | MIBC ([3]; single agent, 24 h, 5% CO2): 3,000 ppm
